Source: US20160031998A1 (CSL, published 2016)
Changes are numbered by the printed parent chain.

B1: C1.2G-44 (antibody, human IgG4, V domains shown)
VH: EVQLLESGGGLVQPGGSLRLSCAASGFTFSLYWMGWVRQAPGKGLEWVSSISSSGGVTPYADSVKGRFTISRDNSKNTLYLQMNSLRAEDTAVYYCAKLGELGWFDPWGQGTLVTVSS
VL: DIQMTQSPSSLSASVGDRVTITCRASQGISSYLNWYQQKPGKAPKLLIYYASNLQNGVPSRFSGSGSGTDFTLTISSLQPEDFATYYCQQSYSYPQKFGGGTKVEIK
notes: HCDR3 wt (VH of C1.2G); also called antibody 44
B2: C1.2G-967 (antibody, human IgG4, V domains shown)
VH: B1 VH with W104M, F105Y, P107L
VL: B1 VL with Y92W, S93A, P95G, Q96L, K97S
notes: also called antibody 967
B3: C1.2G-994 (antibody, human IgG4, V domains shown)
VH: B1 VH with W104Q, D106M, P107D
VL: B1 VL with Y92L, S93E, K97M
notes: also called antibody 994
B4: C1.2G-977 (antibody, human IgG4, V domains shown)
VH: B1 VH with W104E, F105I, D106R, P107E
VL: B1 VL with Y92W, S93V, P95H, Q96L, K97P
notes: also called antibody 977
B5: C1.2G-999 (antibody, human IgG4, V domains shown)
VH: B1 VH with W104M, D106H, P107K
VL: B1 VL with Y92W, S93E, P95A, Q96M, K97F
notes: also called antibody 999
B6: C1.2G-54 (antibody, human IgG4, V domains shown)
VH: B1 VH with W104M, D106L, P107E
VL: B1 VL with Y92M, S93W, Y94M, Q96M, K97G
notes: also called antibody 54
B7: C1.2G-975 (antibody, human IgG4, V domains shown)
VH: B1 VH with W104Q, F105S, D106M, P107L
VL: B1 VL with Y92W, S93Q, Y94I, P95K, Q96L
notes: also called antibody 975
B8: C1.2G-984 (antibody, human IgG4, V domains shown)
VH: B1 VH with W104M, F105M, D106Q, P107S
VL: B1 VL with Y92I, S93E, Q96A, K97H
notes: also called antibody 984
B9: C1.2G-989 (antibody, human IgG4, V domains shown)
VH: B1 VH with W104Q, F105Y, D106M, P107F
VL: B1 VL with Y92F, S93Y, Q96F, K97Y
notes: also called antibody 989
B10: C1.2G-973 (antibody, human IgG4, V domains shown)
VH: B1 VH with W104Q, F105M, D106V, P107Y
VL: B1 VL with Y92F, S93K, Q96M, K97T
notes: also called antibody 973
B11: C1.2G-43 (antibody, human IgG4, V domains shown)
VH: B1 VH with W104Q, D106M, P107R
VL: B1 VL with Y92I, S93G, Q96G, K97S
notes: also called antibody 43
B12: C1.2G-996 (antibody, human IgG4, V domains shown)
VH: B1 VH with W104Q, F105Y, D106M, P107G
VL: B1 VL with Y92M, S93W, Y94M, Q96I, K97F
notes: also called antibody 996
B13: C1.2G-1003 (antibody, human IgG4, V domains shown)
VH: B1 VH with W104S, F105G, D106S, P107T
VL: B1 VL with Y92W, S93H, Q96L, K97T
notes: also called antibody 1003
B14: C1.2G-987 (antibody, human IgG4, V domains shown)
VH: B1 VH with W104Q, F105S, D106S, P107A
VL: B1 VL with Y92I, S93Q, K97M
notes: also called antibody 987
B15: C1.2G-986 (antibody, human IgG4, V domains shown)
VH: B1 VH with W104F, D106Q, P107E
VL: B1 VL with S93A, K97Q
notes: also called antibody 986
B16: C1.2G-1002 (antibody, human IgG4, V domains shown)
VH: B1 VH with W104M, F105Y, D106M, P107N
VL: B1 VL with Y92W, S93T, P95G, K97T
notes: also called antibody 1002
B17: C1.2G-870 (antibody, human IgG4, V domains shown)
VH: B1 VH
VL: B1 VL with Y92W, S93M, P95H, Q96K, K97I
notes: HCDR3 wt (VH of C1.2G); also called antibody 870
B18: C1.2G-75 (antibody, human IgG4, V domains shown)
VH: B1 VH
VL: B1 VL with Q89E, Q90E, Y92M, S93N, Q96L, K97T
notes: HCDR3 wt (VH of C1.2G); also called antibody 75
B19: C1.2G-802 (antibody, human IgG4, V domains shown)
VH: B1 VH
VL: B1 VL with Q89H, Q90F, Y92M, S93Q, Q96L, K97T
notes: HCDR3 wt (VH of C1.2G); also called antibody 802
B20: C1.2G-852 (antibody, human IgG4, V domains shown)
VH: B1 VH with W104H, F105S, D106L, P107A
VL: B1 VL with Y94T, Q96L, K97T
notes: LCDR3 wt (VL of C1.2G); also called antibody 852
B21: C1.2G-94 (antibody, human IgG4, V domains shown)
VH: B1 VH
VL: B1 VL with Y92W, S93V, Q96A, K97W
notes: HCDR3 wt (VH of C1.2G); also called antibody 94
B22: C1.2G-877 (antibody, human IgG4, V domains shown)
VH: B1 VH
VL: B1 VL with Y92F, S93R, Q96F, K97Y
notes: HCDR3 wt (VH of C1.2G); also called antibody 877
B23: C1.2G-77 (antibody, human IgG4, V domains shown)
VH: B1 VH
VL: B1 VL with Q89E, S91G, Y92W, S93N, Q96L, K97T
notes: HCDR3 wt (VH of C1.2G); also called antibody 77
B24: C1.2G-79 (antibody, human IgG4, V domains shown)
VH: B1 VH
VL: B1 VL with Q90V, Y92W, S93E, Q96L, K97T
notes: HCDR3 wt (VH of C1.2G); also called antibody 79
B25: C1.2G-95 (antibody, human IgG4, V domains shown)
VH: B1 VH
VL: B1 VL with Y92W, S93E, Q96L, K97V
notes: HCDR3 wt (VH of C1.2G); also called antibody 95
B26: C1.2G-56 (antibody, human IgG4, V domains shown)
VH: B1 VH
VL: B1 VL with S93M, Q96I
notes: HCDR3 wt (VH of C1.2G); also called antibody 56
B27: C1.2G-814 (antibody, human IgG4, V domains shown)
VH: B1 VH
VL: B1 VL with Q89S, Y92M, S93E, Q96L, K97T
notes: HCDR3 wt (VH of C1.2G); also called antibody 814
B28: C1.2G-63 (antibody, human IgG4, V domains shown)
VH: B1 VH
VL: B1 VL with Q89A, Q90N, Y92W, S93G, Q96L, K97T
notes: HCDR3 wt (VH of C1.2G); also called antibody 63
B29: C1.2G-97 (antibody, human IgG4, V domains shown)
VH: B1 VH
VL: B1 VL with Y92F, S93M, Q96L, K97Y
notes: HCDR3 wt (VH of C1.2G); also called antibody 97
B30: C1.2G-83 (antibody, human IgG4, V domains shown)
VH: B1 VH
VL: B1 VL with Y92W, S93M, P95A, Q96L, K97F
notes: HCDR3 wt (VH of C1.2G); also called antibody 83

Experiments:
[1] = target: T1, human G-CSFR expressed on cells (Homo sapiens, UniProt Q99062 25-836); assay: cell-based or functional assay
T1 sequence: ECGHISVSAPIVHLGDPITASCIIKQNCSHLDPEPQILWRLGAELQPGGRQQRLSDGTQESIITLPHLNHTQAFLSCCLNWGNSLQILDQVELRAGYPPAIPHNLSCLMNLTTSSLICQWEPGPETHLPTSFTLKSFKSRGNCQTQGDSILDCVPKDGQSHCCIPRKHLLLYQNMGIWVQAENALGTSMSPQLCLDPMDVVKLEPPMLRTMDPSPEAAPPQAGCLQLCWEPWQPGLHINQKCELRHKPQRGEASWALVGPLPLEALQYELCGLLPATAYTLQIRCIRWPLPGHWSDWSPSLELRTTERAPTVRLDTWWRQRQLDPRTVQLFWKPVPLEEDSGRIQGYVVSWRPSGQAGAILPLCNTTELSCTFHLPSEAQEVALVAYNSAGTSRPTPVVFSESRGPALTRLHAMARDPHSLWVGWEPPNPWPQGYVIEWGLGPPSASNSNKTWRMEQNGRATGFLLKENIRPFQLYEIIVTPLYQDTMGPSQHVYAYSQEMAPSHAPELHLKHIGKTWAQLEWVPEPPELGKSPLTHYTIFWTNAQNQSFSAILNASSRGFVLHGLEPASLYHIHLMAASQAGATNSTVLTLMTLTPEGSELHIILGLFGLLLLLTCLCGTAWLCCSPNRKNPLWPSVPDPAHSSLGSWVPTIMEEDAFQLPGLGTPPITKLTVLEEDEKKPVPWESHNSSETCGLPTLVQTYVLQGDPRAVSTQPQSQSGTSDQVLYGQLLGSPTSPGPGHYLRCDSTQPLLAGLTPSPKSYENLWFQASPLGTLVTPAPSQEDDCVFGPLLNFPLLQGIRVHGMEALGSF

[2] = target: T2, soluble hG-CSFR: amino acids 25-335 of Homo sapiens G-CSFR with mutations C78A, C163S and C228S and a … (Homo sapiens, UniProt Q99062 25-335); assay: SPR (Biacore), mAb captured by anti-human IgG, soluble hG-CSFR injected
T2 chain: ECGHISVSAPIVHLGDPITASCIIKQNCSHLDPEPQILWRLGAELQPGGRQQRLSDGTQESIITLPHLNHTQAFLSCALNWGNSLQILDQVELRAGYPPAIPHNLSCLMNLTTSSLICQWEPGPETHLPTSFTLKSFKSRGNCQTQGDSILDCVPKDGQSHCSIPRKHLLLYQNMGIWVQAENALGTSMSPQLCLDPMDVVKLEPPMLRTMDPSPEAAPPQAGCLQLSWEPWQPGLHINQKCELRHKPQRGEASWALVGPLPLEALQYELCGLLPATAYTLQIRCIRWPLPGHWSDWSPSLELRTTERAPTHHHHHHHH
Protocol: Soluble hG-CSFR was injected for 5 minutes and dissociation was monitored for 30 minutes. Responses from a reference flow cell (in which mAb was not captured, but otherwise treated identically), were subtracted. The responses from a blank injection were then subtracted from the resultant sensorgrams.
The final corrected responses were fitted using non-linear regression to a model describing 1:1 kinetics, including a term for mass transport limitation. The Rmax value was fitted locally, to account for slight deviations in the level of mAb captured. Association rate (ka), dissociation rate (kd) and equilibrium dissociation constant (KD) were determined.

Binder	IC50 (nM), inhibition of G-CSF-mediated proliferation of BaF3 cells [1] [nM]	Kd [2] [nM]
B1	0.39	0.0733
B2	0.29	0.134
B3	0.49	0.17
B4		0.246
B5		0.356
B6	0.5	0.11
B7		0.209
B8		0.25
B9	0.34	0.144
B10		0.23
B11		0.336
B12		0.336
B13	0.26	0.0682
B14	0.88	0.0446
B15	0.28	0.0911
B16	0.18	0.167
B17		0.367
B18		0.211
B19	0.26	0.111
B20		0.292
B21		0.189
B22		0.508
B23	0.23	0.107
B24	0.31	0.0613
B25	0.26	0.0578
B26	0.22	0.0993
B27		0.221
B28	0.26	0.161
B29	0.21	0.0906
B30	0.21	0.066
